Key:
mouse PCSK9 [1] = target: T1, mouse PCSK9 (mouse, UniProt Q80W65 35-694, limits assumed); test: SPR Biacore 3000, captured IgG, mPCSK9 injected, pH 7.4
T1 construct: also called mPCSK9; msPCK9
From the text: (§1) These antibodies were expressed and purified for determination of their KD at 7.4 and their KD ratio of pH5.5/pH 7.4, as measured on a surface plasmon resonance Biacore 3000 biosensor equipped with a research-grade sensor chip using HBS-EP running buffer (Biacore AB, Uppsala, Sweden—now GE Healthcare). Rabbit polyclonal anti-Ms IgGs were amine-coupled at saturating levels onto the chip using a standard N-hydroxysuccinimide/ethyldimethylaminopropyl carbodiimide (NHS/EDC) chemistry. The buffer was switched to HBS-EP+1 mg/mL BSA+1 mg/mL CM-dextran. Full-length PCSK9 IgGs were diluted to about 15 μg/mL and captured for 1 min at 5 μL/min to give levels of about 500 RU per flow cell, leaving one blank to serve as a reference channel. […] Dissociation was monitored for 5 min. The chip was regenerated after the last injection of each titration with two 30 sec pulses of 100 mM phosphoric acid. Buffer cycles provided blanks for double-referencing the data, which were then fit globally to a simple binding model using Biaevaluation software v.4.1. Affinities were deduced from the quotient of the kinetic rate constants (KD=koff/kₒₙ).

mouse PCSK9 [2] = target: T1, mouse PCSK9; test: SPR Biacore 3000, captured IgG, mPCSK9 injected, pH 5.5
From the text: as §1

human PCSK9 [3] = target: T2, human PCSK9 (human, UniProt Q8NBP7 31-692, limits assumed); test: SPR Biacore 3000, captured IgG, hPCSK9 injected, pH 5.5
T2 construct: also called hPCSK9; huPCSK9
From the text: as §1

human PCSK9 [4] = target: T2, human PCSK9; test: SPR Biacore 3000, KD at pH 5.5 over KD at pH 7.4
From the text: as §1

mouse PCSK9 [5] = target: T1, mouse PCSK9; test: SPR Biacore 3000, KD at pH 5.5 over KD at pH 7.4
From the text: as §1

human PCSK9 [6] = target: T2, human PCSK9; test: SPR Biacore 3000, captured IgG, hPCSK9 injected, pH 7.4
From the text: as §1

T1 sequence (Q80W65 35-694 limits assumed): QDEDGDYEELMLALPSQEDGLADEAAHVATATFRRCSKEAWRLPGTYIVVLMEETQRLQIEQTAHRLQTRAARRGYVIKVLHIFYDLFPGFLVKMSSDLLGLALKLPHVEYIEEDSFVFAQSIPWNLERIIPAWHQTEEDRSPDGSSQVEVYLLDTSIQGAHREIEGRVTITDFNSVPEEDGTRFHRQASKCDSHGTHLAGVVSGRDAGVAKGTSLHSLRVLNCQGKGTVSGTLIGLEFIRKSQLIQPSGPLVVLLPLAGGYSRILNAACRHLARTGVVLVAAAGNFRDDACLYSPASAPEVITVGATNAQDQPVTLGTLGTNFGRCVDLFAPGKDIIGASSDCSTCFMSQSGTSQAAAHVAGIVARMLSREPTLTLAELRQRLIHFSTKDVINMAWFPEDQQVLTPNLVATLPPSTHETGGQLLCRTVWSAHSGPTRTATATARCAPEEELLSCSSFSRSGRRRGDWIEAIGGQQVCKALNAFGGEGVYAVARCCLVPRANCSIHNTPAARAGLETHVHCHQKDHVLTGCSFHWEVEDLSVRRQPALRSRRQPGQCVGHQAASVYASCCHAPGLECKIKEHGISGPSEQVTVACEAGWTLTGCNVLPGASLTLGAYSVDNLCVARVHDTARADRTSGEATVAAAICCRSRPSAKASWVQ
T2 sequence (Q8NBP7 31-692 limits assumed): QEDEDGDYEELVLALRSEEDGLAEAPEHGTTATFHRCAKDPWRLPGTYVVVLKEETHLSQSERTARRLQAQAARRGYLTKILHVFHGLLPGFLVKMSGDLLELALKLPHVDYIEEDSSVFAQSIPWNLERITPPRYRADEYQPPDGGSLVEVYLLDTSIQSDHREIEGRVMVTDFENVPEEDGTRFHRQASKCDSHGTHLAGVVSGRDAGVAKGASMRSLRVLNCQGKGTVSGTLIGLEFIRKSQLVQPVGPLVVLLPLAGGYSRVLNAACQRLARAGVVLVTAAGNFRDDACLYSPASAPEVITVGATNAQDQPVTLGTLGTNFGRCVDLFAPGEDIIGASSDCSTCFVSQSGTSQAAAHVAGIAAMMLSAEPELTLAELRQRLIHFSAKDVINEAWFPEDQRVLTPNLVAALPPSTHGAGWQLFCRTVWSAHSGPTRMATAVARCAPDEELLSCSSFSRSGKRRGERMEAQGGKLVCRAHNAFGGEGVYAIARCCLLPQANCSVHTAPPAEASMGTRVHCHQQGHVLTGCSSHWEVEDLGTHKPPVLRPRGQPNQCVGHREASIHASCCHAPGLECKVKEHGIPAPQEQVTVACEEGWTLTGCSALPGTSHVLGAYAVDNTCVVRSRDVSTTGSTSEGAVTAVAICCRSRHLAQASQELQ

| Binder | Kd (mouse PCSK9 [1]) [nM] | koff (mouse PCSK9 [1]) [s⁻¹] | kon (mouse PCSK9 [1]) [M⁻¹ s⁻¹] | Kd (mouse PCSK9 [2]) [nM] | koff (mouse PCSK9 [2]) [s⁻¹] | kon (mouse PCSK9 [2]) [M⁻¹ s⁻¹] | Kd (human PCSK9 [3]) [nM] | koff (human PCSK9 [3]) [s⁻¹] | kon (human PCSK9 [3]) [M⁻¹ s⁻¹] | KD ratio pH 5.5/7.4 (human PCSK9 [4]) | KD ratio pH 5.5/7.4 (mouse PCSK9 [5]) | Kd (human PCSK9 [6]) [nM] | koff (human PCSK9 [6]) [s⁻¹] | kon (human PCSK9 [6]) [M⁻¹ s⁻¹] |
| --- | --- | --- | --- | --- | --- | --- | --- | --- | --- | --- | --- | --- | --- | --- |
| 5L1721H23_6L3H3 (antibody, V domains shown, Tested as full-length IgG; also called heavy UC-H5H23-6H3, light UC-H5L1721-6L3) VH: QVQLVQSGAEVKKPGASVKVSCKASGYTFTSYYMHWVRQAPGQGLEWMGEIHPSGGRTNYNEKFKSRVTMTRDTSTSTVYMELSSLRSEDTAVYYCARERPLYASDLWGQGTTVTVSS VL: DIQMTQSPSSLSASVGDRVTITCKASQDVHTAVAWYQQKPGKAPKLLIYHASYRYTGVPSRFSGSGSGTDFTFTISSLQPEDIATYYCQQRYSLWRTFGQGTKLEIK | 8.1 | 0.000516 | 63700 | 117 | 0.0187 | 160000 | – | – | – | – | – | – | – | – |
| 6L21H2335 (antibody, V domains shown) VH: QVQLVQSGAEVKKPGASVKVSCKASGYTFTSYYMHWVRQAPGQGLEWMGEIHPFGGRTNYNEKFKSRVTMTRDTSTSTVYMELSSLRSEDTAVYYCARERPLHASDLWGQGTTVTVSS VL: DIQMTQSPSSLSASVGDRVTITCRASQGISSALAWYQQKPGKAPKLLIYHASYRYTGVPSRFSGSGSGTDFTFTISSLQPEDIATYYCQQRYSLWRTFGQGTKLEIK | 191 | 0.0172 | 89900 | 451 | 0.237 | 526000 | 363 | 0.238 | 655000 | 2.9 | 2.4 | 126 | 0.00733 | 58100 |
| 5L1724H35 (antibody, V domains shown, Triple histidine mutant of h5A10; Only CDRs printed; Full-length IgG) VH: QVQLVQSGAEVKKPGASVKVSCKASGYTFTSYYMHWVRQAPGQGLEWMGEINPSGGRTNYNEKFKSRVTMTRDTSTSTVYMELSSLRSEDTAVYYCARERPLHAMDYWGQGTTVTVSS VL: DIQMTQSPSSLSASVGDRVTITCKASQDVHTAVAWYQQKPGKAPKLLIYSASHRYTGVPSRFSGSGSGTDFTFTISSLQPEDIATYYCQQRYSTPRTFGQGTKLEIK | 35 | 0.00153 | 44300 | – | – | – | – | – | – | – | – | – | – | – |
| 5L1721H23 (antibody, V domains shown, Triple histidine mutant of h5A10; Only CDRs printed; Full-length IgG) VH: QVQLVQSGAEVKKPGASVKVSCKASGYTFTSYYMHWVRQAPGQGLEWMGEIHPSGGRTNYNEKFKSRVTMTRDTSTSTVYMELSSLRSEDTAVYYCARERPLYAMDYWGQGTTVTVSS VL: DIQMTQSPSSLSASVGDRVTITCKASQDVHTAVAWYQQKPGKAPKLLIYHASYRYTGVPSRFSGSGSGTDFTFTISSLQPEDIATYYCQQRYSTPRTFGQGTKLEIK | 23 | 0.00141 | 61200 | 576 | 0.0588 | 102000 | 144 | 0.0179 | 124000 | 11.1 | 25 | 13 | 0.000399 | 31700 |
| 5L1724H23 (antibody, V domains shown, Triple histidine mutant of h5A10; Only CDRs printed; Full-length IgG) VH: QVQLVQSGAEVKKPGASVKVSCKASGYTFTSYYMHWVRQAPGQGLEWMGEIHPSGGRTNYNEKFKSRVTMTRDTSTSTVYMELSSLRSEDTAVYYCARERPLYAMDYWGQGTTVTVSS VL: DIQMTQSPSSLSASVGDRVTITCKASQDVHTAVAWYQQKPGKAPKLLIYSASHRYTGVPSRFSGSGSGTDFTFTISSLQPEDIATYYCQQRYSTPRTFGQGTKLEIK | – | – | – | 74 | 0.0202 | 273000 | 39 | 0.00793 | 203000 | – | – | – | – | – |
| 5L1724H23_6L3 (antibody, V domains shown, Only CDRs printed; Full-length IgG) VH: QVQLVQSGAEVKKPGASVKVSCKASGYTFTSYYMHWVRQAPGQGLEWMGEIHPSGGRTNYNEKFKSRVTMTRDTSTSTVYMELSSLRSEDTAVYYCARERPLYAMDYWGQGTTVTVSS VL: DIQMTQSPSSLSASVGDRVTITCKASQDVHTAVAWYQQKPGKAPKLLIYSASHRYTGVPSRFSGSGSGTDFTFTISSLQPEDIATYYCQQRYSLWRTFGQGTKLEIK | 41 | 0.00218 | 53100 | 756 | 0.121 | 160000 | 540 | 0.0407 | 75400 | 24.5 | 18.4 | 22 | 0.00079 | 35900 |

Further binders by falling Kd (mouse PCSK9 [1]), results first:

| Kd (mouse PCSK9 [1]) [nM] | koff (mouse PCSK9 [1]) [s⁻¹] | kon (mouse PCSK9 [1]) [M⁻¹ s⁻¹] | Kd (mouse PCSK9 [2]) [nM] | koff (mouse PCSK9 [2]) [s⁻¹] | kon (mouse PCSK9 [2]) [M⁻¹ s⁻¹] | Kd (human PCSK9 [3]) [nM] | koff (human PCSK9 [3]) [s⁻¹] | kon (human PCSK9 [3]) [M⁻¹ s⁻¹] | KD ratio pH 5.5/7.4 (human PCSK9 [4]) | KD ratio pH 5.5/7.4 (mouse PCSK9 [5]) | Kd (human PCSK9 [6]) [nM] | koff (human PCSK9 [6]) [s⁻¹] | kon (human PCSK9 [6]) [M⁻¹ s⁻¹] | Binder |
| --- | --- | --- | --- | --- | --- | --- | --- | --- | --- | --- | --- | --- | --- | --- |
| 14 | 0.000676 | 47500 | 408 | 0.0428 | 105000 | 257 | 0.0166 | 64500 | 37.2 | 29.1 | 6.9 | 0.000214 | 30900 | 5L1721H23_6L3 (antibody, V domains shown, Tested as full-length IgG; also called heavy UC-H5H23, light UC-H5L1721-6L3) VH: QVQLVQSGAEVKKPGASVKVSCKASGYTFTSYYMHWVRQAPGQGLEWMGEIHPSGGRTNYNEKFKSRVTMTRDTSTSTVYMELSSLRSEDTAVYYCARERPLYAMDYWGQGTTVTVSS VL: DIQMTQSPSSLSASVGDRVTITCKASQDVHTAVAWYQQKPGKAPKLLIYHASYRYTGVPSRFSGSGSGTDFTFTISSLQPEDIATYYCQQRYSLWRTFGQGTKLEIK |
| 13 | 0.000827 | 63100 | 125 | 0.0263 | 211000 | 83 | 0.00789 | 95500 | 5.5 | 9.6 | 15 | 0.000342 | 22300 | 5L1724H23_6L3H3 (antibody, V domains shown, Only CDRs printed; Full-length IgG) VH: QVQLVQSGAEVKKPGASVKVSCKASGYTFTSYYMHWVRQAPGQGLEWMGEIHPSGGRTNYNEKFKSRVTMTRDTSTSTVYMELSSLRSEDTAVYYCARERPLYASDLWGQGTTVTVSS VL: DIQMTQSPSSLSASVGDRVTITCKASQDVHTAVAWYQQKPGKAPKLLIYSASHRYTGVPSRFSGSGSGTDFTFTISSLQPEDIATYYCQQRYSLWRTFGQGTKLEIK |
| 8 | 0.000899 | 113000 | 111 | 0.0341 | 307000 | 55 | 0.00772 | 141000 | 7.5 | 13.9 | 7.3 | 0.000273 | 37400 | 5L1721H23_6H3 (antibody, V domains shown, Only CDRs printed; Full-length IgG) VH: QVQLVQSGAEVKKPGASVKVSCKASGYTFTSYYMHWVRQAPGQGLEWMGEIHPSGGRTNYNEKFKSRVTMTRDTSTSTVYMELSSLRSEDTAVYYCARERPLYASDLWGQGTTVTVSS VL: DIQMTQSPSSLSASVGDRVTITCKASQDVHTAVAWYQQKPGKAPKLLIYHASYRYTGVPSRFSGSGSGTDFTFTISSLQPEDIATYYCQQRYSTPRTFGQGTKLEIK |
| 7.2 | 0.000469 | 64800 | 36 | 0.00729 | 204000 | 24 | 0.00261 | 110000 | 6 | 5 | 4 | 0.000201 | 50200 | 6L1721H23 (antibody, V domains shown, L1L3-based mutant; Full-length IgG) VH: QVQLVQSGAEVKKPGASVKVSCKASGYTFTSYYMHWVRQAPGQGLEWMGEIHPFGGRTNYNEKFKSRVTMTRDTSTSTVYMELSSLRSEDTAVYYCARERPLYASDLWGQGTTVTVSS VL: DIQMTQSPSSLSASVGDRVTITCRASQGIHSALAWYQQKPGKAPKLLIYHASYRYTGVPSRFSGSGSGTDFTFTISSLQPEDIATYYCQQRYSLWRTFGQGTKLEIK |
| 2.6 | 0.000228 | 88000 | 5.2 | 0.00177 | 338000 | 5.1 | 0.00084 | 166000 | 2.3 | 2 | 2.2 | 7.08e-05 | 32900 | 6L1721 (antibody, V domains shown, L1L3-based mutant; Tested as full-length IgG) VH: QVQLVQSGAEVKKPGASVKVSCKASGYTFTSYYMHWVRQAPGQGLEWMGEISPFGGRTNYNEKFKSRVTMTRDTSTSTVYMELSSLRSEDTAVYYCARERPLYASDLWGQGTTVTVSS VL: DIQMTQSPSSLSASVGDRVTITCRASQGIHSALAWYQQKPGKAPKLLIYHASYRYTGVPSRFSGSGSGTDFTFTISSLQPEDIATYYCQQRYSLWRTFGQGTKLEIK |

— patent publication US20150266974A1 (RINAT NEUROSCIENCE, published 2015)
